Test [1] deals with T1, plasma FN (Homo sapiens, UniProt P02751). The experiment in a line: Stopped-flow fluorimetry (crossed polarizers), direct binding of AFpolypeptide to a series of FN concentrations. As to conditions: as restated in text from Table 1; read-out: k on of FN-AFpolypeptide interaction. As for the experimental part:
(§1) Measurements were in TBS with 100mM NaCl at 25°C. Reactants separated in two syringes were injected by SFA-20 rapid kinetics accessory (Hi-Tech Scientific, Salisbury, England) into the cuvette for mixing in QuantaMaster 300 spectrofluorimeter (Photon Technology International, Edison, New Jersey) with excitation and emission polarizers of 90 degree. The excitation and emission wavelength were 485nm and 535 nm respectively. Upon mixing the fluorescence intensity were recorded at a rate of 10 points/sec during the reaction procedure. In the absence of FN or FN70K, there was no change in fluorescence polarization for any of the AFpolypeptides.
In direct binding assays, AFFUD, AFHADD, AFFRD or AFBbk32, 10 nM, was mixed with a series of FN concentrations or with FN70K at 100 nM. AFΔBbk32 was studied only with FN at 100 nM. For each experiment, four or five curves were generated, and k obs was calculated by F(t) = Fmin+(Fmax-Fmin)e^-kobst (1) where F(t) is fluorescence intensity at time point t. Fmax or Fmin is maximum or minimum fluorescence intensity, and the rate constant k is k obs. […]
Stopped-flow fluorimetry with crossed-polarizers was performed to study on-off kinetics of the FN-AFpolypeptide interactions. Upon mixing 10 nM AFFUD, AFHADD, AFFRD or AFBbk32 with increasing concentration (100, 200, 300, 400, or 500 nM) of FN, decreases of fluorescence intensity were observed (Fig 3). […]

For test [2], the target named is T1, plasma FN. The experiment in a line: Stopped-flow displacement of AFpolypeptide from FN complex by unlabeled polypeptide (or size exclusion chromatography). As to conditions: 1 μM unlabeled polypeptide, over 180 sec (Fig 3E-H). It counts as binding. The method, then: as §1
In displacement assays, unlabeled FUD, HADD, FRD, Bbk32, or ΔBbk32 in 10-fold molar excess of FN or FN70K was mixed with complex of AFpolypeptide and FN or FN70K. For ΔBbk32, only displacement from FN was measured. The k off value is calculated by Ft = Fmin+Fmax-Fmin1-e^-kofft (3) in which k off is the dissociation rate constant. The k on of FN70K-AFpolypeptide was determined by Eq based on [FN70K] and the k off of FN70K-AFpolypeptide obtained from Eq.
Fractions of 0.5 ml were collected and assayed. FN was monitored by absorbance at 280 nm by NanoDrop 2000 UV-Vis Spectrophotometer (Thermo Scientific, Wilmington, DE) and AFpolypeptide by Tecan Genios Pro microplate reader with excitation 485 nm and emission 535 nm. […]

In test [3] the target is T1, plasma FN. The experiment in a line: Size exclusion chromatography of FN-AFpolypeptide complex. As to conditions: from half-life lower limit by Eq 4, read-out: k off estimated from size exclusion chromatography. Format: binding. As for the experimental part:
(§2) Fractions of 0.5 ml were collected and assayed. FN was monitored by absorbance at 280 nm by NanoDrop 2000 UV-Vis Spectrophotometer (Thermo Scientific, Wilmington, DE) and AFpolypeptide by Tecan Genios Pro microplate reader with excitation 485 nm and emission 535 nm. FN, AFFUD or AFBbk32 was analyzed by itself as a control. The k off of FN-AFFUD complex was estimated by estimating the lower limit of half-life (t1/2) of complex decay and the following equation: t1/2 = 0.693/koff (4)
(§3) To corroborate the estimates from stopped-flow fluorimetry of k off for the FN-FUD or FN-Bbk32 interaction by a second method, size exclusion chromatography of the FN-AFFUD or FN-AFBbk32 complex was carried out. […] Elution patterns of FN alone (Fig 6C), AFFUD alone (Fig 6D), and AFBbk32 alone (Fig 6E) are also shown. FN eluted at 20 min. We estimate, therefore, that the half-life of FN-AFFUD is longer than 20 min and, according to Eq, the k off of FN-AFFUD is < 10^-3 s^-1, which is more than 20-fold slower than that estimated for FN-AFBbk32 by Eq or the displacement experiment (Table 1).
Fig 6 FPLC size exclusion of FN-AFFUD or FN-AFBbk32 complex. […] Absorbance at 280nm (A^280nm), and emission at 535 nm upon excitation at 485 nm (E^535nm) were measured to estimate, respectively, concentration of FN and AFpolypeptide and expressed relative to the values in starting material. […]

The target of a further test is T2, FN70K fragment (Homo sapiens, UniProt P02751).
T2 construct: the FN70K domain comprising the N-terminal ^1-9FNI and ^1-2FNII modules of FN; from tissue; host or cells: proteolytic fragment of FN
The experiment in a line: Size exclusion chromatography of FN70K-AFpolypeptide complex. Format: binding. As to conditions: data not shown, read-out: k off estimated from size exclusion chromatography. The method, then:
as §2, §3

In test [4] the target is FN70K fragment (N-terminal 70-kDa region of fibronectin). The experiment in a line: fluorescence polarisation; KD calculated as koff/kon from the stopped-flow on-rate and the off-rate of the stopped-flow displacement.
Test [5] addresses plasma fibronectin (FN) (UniProt P02751). The test is described as above.
Test [6] deals with FN70K fragment (N-terminal 70-kDa region of fibronectin). The experiment in a line: fluorescence polarisation; stopped-flow with crossed polarizers, displacement: 10 nM AFpolypeptide pre-mixed 30 min with 100 nM FN or FN70K, then 1 uM of the same unlabeled polypeptide; single exponential fit; TBS with 100 mM NaCl, 25°C. A general note: Polarisation of emitted light reports the rotation of a fluorescent probe.

Test [7] concerns the target plasma fibronectin (FN) (UniProt P02751). Described as above.
Test [8] shares this target. The experiment in a line: fluorescence polarisation; stopped-flow with crossed polarizers, direct binding: 10 nM AFpolypeptide mixed with 100, 200, 300, 400 or 500 nM FN; kobs against [FN], kon from the slope, koff from the y-intercept; TBS with 100 mM NaCl, 25°C.
The target is the same in test [9]. The experiment in a line: fluorescence polarisation; stopped-flow with crossed polarizers, displacement: 10 nM AFpolypeptide pre-mixed 30 min with 100 nM FN or FN70K, then 1 uM of the same unlabeled polypeptide; single exponential fit; TBS with 100 mM NaCl, 25°C. The source holds these as a separate data set.
Test [10] addresses FN70K fragment (N-terminal 70-kDa region of fibronectin). The experiment in a line: fluorescence polarisation; stopped-flow with crossed polarizers, direct binding at a single concentration: 10 nM AFpolypeptide mixed with 100 nM FN70K; kon from kobs and the koff of displacement (koff taken as 0 for FUD and HADD); TBS with 100 mM NaCl, 25°C.
The target is the same in test [11]. The experiment in a line: SEC; data not shown: the same size exclusion experiment as for FN-AFFUD, with FN70K-AFFUD, FN-AFHADD or FN70K-AFHADD. (SEC sorts molecules by how far they enter the pores of the column.)
Test [12] shares this target. The experiment in a line: fluorescence polarisation + SEC; KD limit calculated as koff/kon from the stopped-flow on-rate and the upper limit of koff by chromatography.
The target of test [13] is plasma fibronectin (FN) (UniProt P02751). The description is as above.
Test [14] shares this target. The experiment in a line: SEC; 400 nM FN and 40 nM AFFUD or AFBbk32 mixed 30 min in TBS with 100 mM NaCl, Superose 6 10/300 at 0.5 ml/min; FN by A280, AFpolypeptide by fluorescence; koff from the lower limit of the half-life.
For test [15] the target is unchanged. The experiment in a line: ELISA; competitive: FN coated on 96-well plate (50 ul, 20 nM); 0.5 nM b-FUD or b-Bbk32 mixed with unlabeled FUD or Bbk32 at 1, 10, 100 or 1000 nM, 1 h; bound biotinylated polypeptide detected with enzyme-conjugated (strept)avidin.
The target is the same in test [16]. The experiment in a line: SEC; data not shown: the same size exclusion experiment as for FN-AFFUD, with FN70K-AFFUD, FN-AFHADD or FN70K-AFHADD.

Peptide text beside a SMILES is read from it.

As a reminder, the Kd is the free concentration of one partner at which half of the binding sites on the other are occupied at equilibrium, for simple one-to-one binding. As a reminder, the IC50 is the concentration needed to halve the response being measured. Higher therefore signals a need for much substance.

T1 sequence (P02751 32-609): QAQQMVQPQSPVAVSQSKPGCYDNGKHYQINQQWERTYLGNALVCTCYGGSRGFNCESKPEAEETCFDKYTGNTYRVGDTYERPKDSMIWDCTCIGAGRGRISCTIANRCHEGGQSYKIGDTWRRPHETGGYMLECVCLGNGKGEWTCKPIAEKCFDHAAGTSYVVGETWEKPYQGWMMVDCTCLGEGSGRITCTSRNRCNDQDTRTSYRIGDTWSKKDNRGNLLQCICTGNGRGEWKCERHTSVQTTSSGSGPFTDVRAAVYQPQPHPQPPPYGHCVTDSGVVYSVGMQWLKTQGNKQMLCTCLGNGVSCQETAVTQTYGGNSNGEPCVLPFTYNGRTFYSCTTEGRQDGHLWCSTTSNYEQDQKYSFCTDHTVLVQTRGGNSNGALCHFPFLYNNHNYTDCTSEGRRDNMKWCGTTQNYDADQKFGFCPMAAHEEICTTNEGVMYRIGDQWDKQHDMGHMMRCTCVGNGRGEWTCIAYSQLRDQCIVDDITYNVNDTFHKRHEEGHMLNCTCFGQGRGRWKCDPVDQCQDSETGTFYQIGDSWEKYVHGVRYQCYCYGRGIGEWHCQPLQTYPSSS
T2 sequence (P02751 32-609 limits assumed): as the sequence (P02751 32-609) above

Turning to `C[C@H](N)C(=O)N[C@@H](Cc1ccccc1)C(=O)N[C@@H](Cc1c[nH]cn1)C(=O)N[C@@H](C)C(=O)N[C@@H](CC(=O)O)C(=O)N[C@@H](CC(=O)O)C(=O)O` [AFHADD] (H-AFHADD-OH), the kon on plasma FN [1] is 430000 M⁻¹ s⁻¹. In addition, the “reversal of fluorescence intensity decrease on displacement” value at plasma FN [2] was “less than 10%”. For the same compound, the koff at plasma FN [3] and on FN70K fragment was less than 0.001 s⁻¹ throughout.

Regarding “AFFRD (FRD labeled with Alexa 488 on the N-terminal cysteine) (domain or fragment)”, the Kd in test [4] was 3.1 nM; in the test with plasma fibronectin (FN) [5], 70 nM. The koff in test [6] is 0.013 s⁻¹; in the test with plasma fibronectin (FN) [7] it was 0.021 s⁻¹; with plasma fibronectin (FN) [8] it was 0.027 to 0.039 s⁻¹; with plasma fibronectin (FN) [9], 0.02 s⁻¹. Further, the kon with plasma fibronectin (FN) [8] is 290000 M⁻¹ s⁻¹; in test [10] it was 4.1e+06 M⁻¹ s⁻¹.

In the case of “AFFUD (FUD labeled with Alexa 488 on the N-terminal cysteine) (domain or fragment)”, the koff (in [11]; in the test with plasma fibronectin (FN) [14]) was less than 0.001 s⁻¹ in each case. Further, the Kd is less than 0.26 nM in test [12] and less than 2.6 nM with plasma fibronectin (FN) [13]. Besides, in the test with plasma fibronectin (FN) [14], the half-life of the complex is greater than 20 min. This compound displayed a percent of AFFUD eluting with FN with plasma fibronectin (FN) [14] of 100%. The compound also yielded a percent of the fluorescence intensity decrease reversed over 180 sec by 1 uM unlabeled polypeptide with plasma fibronectin (FN) [7] of less than 10%. Also, the kon with plasma fibronectin (FN) [8] turned out to be 390000 M⁻¹ s⁻¹; in [10], 3.9e+06 M⁻¹ s⁻¹.

Turning to “AFBbk32 (Bbk32 labeled with Alexa 488 on the N-terminal cysteine) (domain or fragment)”, the Kd was 14 nM in [4] and 140 nM with plasma fibronectin (FN) [5]. In addition, the koff is 0.033 s⁻¹ in test [6], 0.025 s⁻¹ with plasma fibronectin (FN) [7] and 0.036 to 0.041 s⁻¹ in the test with plasma fibronectin (FN) [8]. Moreover, the kon with plasma fibronectin (FN) [8] came out at 180000 M⁻¹ s⁻¹; in test [10], 2.4e+06 M⁻¹ s⁻¹.

“FUD, unlabeled (version with the N-terminal cysteine) (domain or fragment)”: the IC50 with plasma fibronectin (FN) [15] was determined as 10 nM.

With “Bbk32, unlabeled (version with the N-terminal cysteine) (domain or fragment)”, in the test with plasma fibronectin (FN) [15], the IC50 stood at 30 nM and the percent of b-FUD binding to FN left at 1000 nM Bbk32 is greater than 60%.

“AFHADD (HADD labeled with Alexa 488 on the N-terminal cysteine) (domain or fragment)”: the koff (in [11]; with plasma fibronectin (FN) [16]) was less than 0.001 s⁻¹ throughout. Further, the Kd in [12] was less than 0.1 nM; in the test with plasma fibronectin (FN) [13] it was less than 2.3 nM. In the test with plasma fibronectin (FN) [7], this compound yielded a percent of the fluorescence intensity decrease reversed over 180 sec by 1 uM unlabeled polypeptide of less than 10%. The kon with plasma fibronectin (FN) [8] amounted to 430000 M⁻¹ s⁻¹; in [10], 9.7e+06 M⁻¹ s⁻¹.

The values are drawn from article PMC4412574, “On-Off Kinetics of Engagement of FNI Modules of Soluble Fibronectin by β-Strand Addition” (PLoS ONE, 2015).
